Measurements reported in publication PMC8351736 (Molecular Biology of the Cell, 2021).
Each block holds one binder with its values, some of them ahead of it.

Legend:
[1] = target: T1, 6-histidine-tagged Tda2 (His-Tda2) (S. cerevisiae, UniProt P40045 2-126); test: pull-down
T1 sequence: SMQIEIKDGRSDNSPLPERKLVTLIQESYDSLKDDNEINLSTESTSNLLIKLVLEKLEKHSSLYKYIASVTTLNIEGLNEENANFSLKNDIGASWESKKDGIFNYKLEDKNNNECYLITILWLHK

[2] = target: T2, 6-histidine-tagged actin capping protein (His-Cap1/2 heterodimer) (S. cerevisiae, UniProt P28495 1-268; P13517 1-287); test: pull-down
T2 sequence (looked up) 1: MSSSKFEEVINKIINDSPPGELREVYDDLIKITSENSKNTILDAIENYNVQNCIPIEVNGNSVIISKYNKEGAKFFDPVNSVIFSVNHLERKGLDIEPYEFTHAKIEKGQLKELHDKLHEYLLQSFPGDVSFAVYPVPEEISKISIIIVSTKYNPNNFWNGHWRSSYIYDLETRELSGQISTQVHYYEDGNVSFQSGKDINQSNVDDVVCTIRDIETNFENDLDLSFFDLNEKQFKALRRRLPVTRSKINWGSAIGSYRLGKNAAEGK
T2 sequence (looked up) 2: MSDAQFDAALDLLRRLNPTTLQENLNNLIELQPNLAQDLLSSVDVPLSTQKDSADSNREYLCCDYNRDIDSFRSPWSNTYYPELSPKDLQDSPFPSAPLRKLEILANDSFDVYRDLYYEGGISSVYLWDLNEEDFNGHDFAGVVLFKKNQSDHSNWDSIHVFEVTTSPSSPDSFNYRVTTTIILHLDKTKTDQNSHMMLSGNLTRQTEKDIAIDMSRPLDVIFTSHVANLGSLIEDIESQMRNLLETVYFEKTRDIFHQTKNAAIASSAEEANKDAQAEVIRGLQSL

binding result [1]: binds
B1: GST-Aim21^510-555 F533A (domain or fragment, S. cerevisiae, UniProt P40563 510-555, looked up)
chain: KLPSKVASVEKIEEDDNTNKIEIANNWNVSSSFSKEKVLIDTTPGE

binding result [2]: binds
B2: Aim21^1-535-GST (domain or fragment, S. cerevisiae, UniProt P40563 1-535, looked up)
chain: MPSEVTPKVPERPSRRKTSELFPLSGSESGDIKANSEPPTPAGTPNVPTRRPILKAKTMTSFESGMDQESLPKVPLQRPVRRSTTEELNNVMNNTSKELEEIESLISKHNIHNVSRKKSPTSVEEGKVAAIHQNGQRSASDNKTSTNPSPLEKNEHEGAEGNESAISPSNLVNKSNNEVTEHSDSEDLTEKQKVHAALDNEAGDRSHFEEKLIPGDMKVQVDVSKDVEEGSLNALPPSGITESDDKAEKFTKHPESSLEELQKHQEQQEEKIFQNPTDEESTTSLNEKQEGKDNMEVNSQPQGPSDTETVIAATSSNVPSQIASEEENDVPVIPRSRPKKDFEAHVQKEELPNTQEKRVSEECDSTLISTEEESKIPKIPSERPKRRAPPPVPKKPSSRIAAFQEMLQKQQQQDLHNNGNSSATTASADIAKKHTDSSITSDTTKADFTSKLNGLFALPGMVNPGQLPPSLEKKLSSPDTESKLGPQDQSQAKTGPLGGTRRGRGPRGRKLPSKVASVEKIEEDDNTNKIEIFNN
